For assay [1], the target named is Human F1Fo-ATPase purified from HepG2 cells (human). The experiment in a line: SPR (BIAcore T200), single-cycle kinetics; peptide immobilised as ligand on streptavidin chip, F1Fo-ATPase as analyte injected at 31.25, 62.5, 125, 250 and 500 nM.
Assay [2] has the same target. The experiment in a line: SPR (BIAcore T200), biotinylated peptide immobilised on streptavidin chip, purified F1Fo-ATPase as analyte, single-cycle kinetics. On the technique in general: SPR reads the build-up and loss of mass on a sensor chip optically.
The target is the same in assay [3]. Put plainly: SPR (BIAcore T200), His-tagged peptide immobilised on NTA chip, purified F1Fo-ATPase as analyte, single-cycle kinetics.
The target is the same in assay [4]. The experiment in a line: SPR (BIAcore T200), single-cycle kinetics; peptide immobilised as ligand on NTA chip, F1Fo-ATPase as analyte injected at 31.25, 62.5, 125, 250 and 500 nM.

Square brackets hold non-standard residues; d marks the D form. Ends that are not written are not given here. * marks the point of attachment. Biotin = O=C1N[C@H]2[C@H](CS[C@H]2CCCCC(=O)*)N1; Palmitoyl = CCCCCCCCCCCCCCCC(=O)*; AEEA = NCCOCCOCC(=O)O

We go through two molecules from patent US20230050846A1, “TREATMENT OF HEPATIC AND CARDIOVASCULAR DISORDERS” (LIFESEARCH, priority 2019, published 2023).

By Kd is commonly meant the concentration at which binding is half-saturated. Lower therefore signals higher affinity. Usually koff stands for the rate constant with which the complex falls apart. A higher koff goes with fast dissociation.

B1: Formula (II)-Biotin: CH3CO-[SEQ ID NO: 1]-K-[palmitoyl]-AEEAc-K-[biotinyl]-NH2 (peptide)
peptide: Ac-RGAGSIREAGGAFGKREQAEEERYFRAQSREK(Palmitoyl)[AEEA]K(Biotin)-NH2
SMILES: CCCCCCCCCCCCCCCC(=O)NCCCC[C@H](NC(=O)[C@H](CCC(=O)O)NC(=O)[C@H](CCCNC(=N)N)NC(=O)[C@H](CO)NC(=O)[C@H](CCC(N)=O)NC(=O)[C@H](C)NC(=O)[C@H](CCCNC(=N)N)NC(=O)[C@H](Cc1ccccc1)NC(=O)[C@H](Cc1ccc(O)cc1)NC(=O)[C@H](CCCNC(=N)N)NC(=O)[C@H](CCC(=O)O)NC(=O)[C@H](CCC(=O)O)NC(=O)[C@H](CCC(=O)O)NC(=O)[C@H](C)NC(=O)[C@H](CCC(N)=O)NC(=O)[C@H](CCC(=O)O)NC(=O)[C@H](CCCNC(=N)N)NC(=O)[C@H](CCCCN)NC(=O)CNC(=O)[C@H](Cc1ccccc1)NC(=O)[C@H](C)NC(=O)CNC(=O)CNC(=O)[C@H](C)NC(=O)[C@H](CCC(=O)O)NC(=O)[C@H](CCCNC(=N)N)NC(=O)[C@@H](NC(=O)[C@H](CO)NC(=O)CNC(=O)[C@H](C)NC(=O)CNC(=O)[C@H](CCCNC(=N)N)NC(C)=O)[C@@H](C)CC)C(=O)NCCOCCOCC(=O)N[C@@H](CCCCNC(=O)CCCC[C@@H]1SC[C@@H]2NC(=O)N[C@@H]21)C(N)=O
Turning to B1, the Kd amounted to 3 nM in assay [1] and 4.45 nM in assay [2]. The molecule further registered a koff in assay [1] of 6.85e-05 s⁻¹.
With Ac-RGAGSIREAGGAFGKREQAEEERYFRAQSREHHHHHH [Formula (I)-His-tag: CH3CO-[SEQ ID NO: 1]-HHHHHH], in assay [3], the equilibrium dissociation constant (Kd) was 19 nM. Besides, the koff in assay [4] stood at 0.000643 s⁻¹.
